Results reported in paper PMC13572447, “USP5 acts as a proteolytic switch to control SDE2 function via UBL-directed cleavage” (Nature Communications, 2026).

B3: wild-type USP5 (ubiquitin-specific protease 5), recombinant (enzyme, human, UniProt P45974-1 1-858, looked up)
chain: MAELSEEALLSVLPTIRVPKAGDRVHKDECAFSFDTPESEGGLYICMNTFLGFGKQYVERHFNKTGQRVYLHLRRTRRPKEEDPATGTGDPPRKKPTRLAIGVEGGFDLSEEKFELDEDVKIVILPDYLEIARDGLGGLPDIVRDRVTSAVEALLSADSASRKQEVQAWDGEVRQVSKHAFSLKQLDNPARIPPCGWKCSKCDMRENLWLNLTDGSILCGRRYFDGSGGNNHAVEHYRETGYPLAVKLGTITPDGADVYSYDEDDMVLDPSLAEHLSHFGIDMLKMQKTDKTMTELEIDMNQRIGEWELIQESGVPLKPLFGPGYTGIRNLGNSCYLNSVVQVLFSIPDFQRKYVDKLEKIFQNAPTDPTQDFSTQVAKLGHGLLSGEYSKPVPESGDGERVPEQKEVQDGIAPRMFKALIGKGHPEFSTNRQQDAQEFFLHLINMVERNCRSSENPNEVFRFLVEEKIKCLATEKVKYTQRVDYIMQLPVPMDAALNKEELLEYEEKKRQAEEEKMALPELVRAQVPFSSCLEAYGAPEQVDDFWSTALQAKSVAVKTTRFASFPDYLVIQIKKFTFGLDWVPKKLDVSIEMPEELDISQLRGTGLQPGEEELPDIAPPLVTPDEPKGSLGFYGNEDEDSFCSPHFSSPTSPMLDESVIIQLVEMGFPMDACRKAVYYTGNSGAEAAMNWVMSHMDDPDFANPLILPGSSGPGSTSAAADPPPEDCVTTIVSMGFSRDQALKALRATNNSLERAVDWIFSHIDDLDAEAAMDISEGRSAADSISESVPVGPKVRDGPGKYQLFAFISHMGTSTMCGHYVCHIKKEGRWVIYNDQKVCASEKPPKDLGYIYFYQRVAS
notes: ubiquitin-specific protease 5 (USP5), human; No removal of the His tag is described; the TR-FRET assay detects the His-tagged protein with an anti-His6 antibody; also called USP5^WT; His-USP5; source: E. coli BL21 (DE3), purified (Ni-NTA, SEC Superdex 200)
B4: catalytically inactive USP5 C335A, recombinant (enzyme, human, UniProt P45974-1 1-858, looked up)
chain: MAELSEEALLSVLPTIRVPKAGDRVHKDECAFSFDTPESEGGLYICMNTFLGFGKQYVERHFNKTGQRVYLHLRRTRRPKEEDPATGTGDPPRKKPTRLAIGVEGGFDLSEEKFELDEDVKIVILPDYLEIARDGLGGLPDIVRDRVTSAVEALLSADSASRKQEVQAWDGEVRQVSKHAFSLKQLDNPARIPPCGWKCSKCDMRENLWLNLTDGSILCGRRYFDGSGGNNHAVEHYRETGYPLAVKLGTITPDGADVYSYDEDDMVLDPSLAEHLSHFGIDMLKMQKTDKTMTELEIDMNQRIGEWELIQESGVPLKPLFGPGYTGIRNLGNSAYLNSVVQVLFSIPDFQRKYVDKLEKIFQNAPTDPTQDFSTQVAKLGHGLLSGEYSKPVPESGDGERVPEQKEVQDGIAPRMFKALIGKGHPEFSTNRQQDAQEFFLHLINMVERNCRSSENPNEVFRFLVEEKIKCLATEKVKYTQRVDYIMQLPVPMDAALNKEELLEYEEKKRQAEEEKMALPELVRAQVPFSSCLEAYGAPEQVDDFWSTALQAKSVAVKTTRFASFPDYLVIQIKKFTFGLDWVPKKLDVSIEMPEELDISQLRGTGLQPGEEELPDIAPPLVTPDEPKGSLGFYGNEDEDSFCSPHFSSPTSPMLDESVIIQLVEMGFPMDACRKAVYYTGNSGAEAAMNWVMSHMDDPDFANPLILPGSSGPGSTSAAADPPPEDCVTTIVSMGFSRDQALKALRATNNSLERAVDWIFSHIDDLDAEAAMDISEGRSAADSISESVPVGPKVRDGPGKYQLFAFISHMGTSTMCGHYVCHIKKEGRWVIYNDQKVCASEKPPKDLGYIYFYQRVAS
notes: ubiquitin-specific protease 5 (USP5), human, catalytic Cys335 changed to Ala; Named His-USP5^C335A in the TR-FRET assay; also called His-USP5^C335A; source: E. coli BL21 (DE3), purified (Ni-NTA, SEC Superdex 200)

What was measured:
Details in all cases: both partners purified
[1] = target: B3; experiment: activity-based probe labelling (covalent adduct on SDS-PAGE); purified DUB 1 µM with probe 2 µM in 50 mM Tris pH 7.5, 1 mM DTT, 37 °C; quenched with LDS/DTT; shows only the covalent probe-enzyme adduct as a band shift
[2] = target: B3; experiment: ITC; SDE2 construct or Ub titrated into USP5 construct; ITC200, 298 K; 50 mM HEPES, 100 mM NaCl, 1 mM TCEP, pH 7.5; duplicate experiments
[3] = target: T1, ubiquitin (monoubiquitin) (human, UniProt P0CG48 1-76); experiment: HDX-MS; USP5^WT 6 µM with or without 200 µM ubiquitin or SDE2UBL, 30 min; 20 mM HEPES pH 7.5, 150 mM NaCl, 1 mM DTT; exchange 0.3 to 3000 s; pepsin digestion
T1 construct: ubiquitin, human

[4] = target: T2, Ub-PA activity-based probe (His-Ub-PA) (human, UniProt P0CG48 1-75, C-terminal propargylamide (PA) warhead); experiment: activity-based probe labelling (covalent adduct on SDS-PAGE); purified DUB 1 µM with probe 2 µM in 50 mM Tris pH 7.5, 1 mM DTT, 37 °C; quenched with LDS/DTT; shows only the covalent probe-enzyme adduct as a band shift
T2 construct: ubiquitin residues 1-75; The plasmid name holds a 3C site between His and Ub; also called Ub-ABP; source: plasmid pTXB1_His-3C-Ub (1-75); obtained by the same method as HA-SDE2UBL-PA

[5] = target: T1, ubiquitin (monoubiquitin); experiment: ITC; SDE2 construct or Ub titrated into USP5 construct; ITC200, 298 K; 50 mM HEPES, 100 mM NaCl, 1 mM TCEP, pH 7.5; duplicate experiments
[6] = target: B4; experiment: as above
USP5 C335R, recombinant = target: T3, USP5 C335R, recombinant (human, UniProt P45974-1 1-858, C335R); experiment: as above
T3 construct: ubiquitin-specific protease 5 (USP5), human, Cys335 changed to Arg; source: E. coli BL21 (DE3), purified (Ni-NTA, SEC Superdex 200)
T3 sequence (looked up): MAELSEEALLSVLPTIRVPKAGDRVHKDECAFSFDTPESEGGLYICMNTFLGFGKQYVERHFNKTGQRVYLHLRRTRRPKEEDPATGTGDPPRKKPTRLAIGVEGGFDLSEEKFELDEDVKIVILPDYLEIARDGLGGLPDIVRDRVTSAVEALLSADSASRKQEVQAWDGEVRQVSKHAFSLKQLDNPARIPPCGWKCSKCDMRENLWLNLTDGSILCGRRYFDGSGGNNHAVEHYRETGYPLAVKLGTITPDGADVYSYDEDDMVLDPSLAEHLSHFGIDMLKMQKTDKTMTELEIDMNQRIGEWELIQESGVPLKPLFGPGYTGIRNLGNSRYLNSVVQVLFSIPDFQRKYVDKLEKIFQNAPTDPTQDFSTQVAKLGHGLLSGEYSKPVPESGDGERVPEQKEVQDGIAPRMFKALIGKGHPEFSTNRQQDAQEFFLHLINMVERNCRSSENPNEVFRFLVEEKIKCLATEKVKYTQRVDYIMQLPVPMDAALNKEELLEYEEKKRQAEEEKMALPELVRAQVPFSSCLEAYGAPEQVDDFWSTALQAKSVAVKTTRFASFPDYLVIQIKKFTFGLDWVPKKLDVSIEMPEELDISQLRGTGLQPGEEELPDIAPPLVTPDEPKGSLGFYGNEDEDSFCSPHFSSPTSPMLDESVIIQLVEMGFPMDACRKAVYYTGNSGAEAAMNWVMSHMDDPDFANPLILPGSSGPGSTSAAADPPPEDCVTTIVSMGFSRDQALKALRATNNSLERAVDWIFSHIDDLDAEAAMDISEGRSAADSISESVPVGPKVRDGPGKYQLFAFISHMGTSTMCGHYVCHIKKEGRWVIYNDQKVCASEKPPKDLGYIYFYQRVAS

B1: HA-SDE2UBL-PA activity-based probe (domain or fragment, human, UniProt Q6IQ49-1 1-76, looked up)
chain: MAEAAALVWIRGPGFGCKAVRCASGRCTVRDFIHRHCQDQNVPVENFFVKCNGALINTSDTVQHGAVYSLEPRLCG
modifications: C-terminal propargylamide: Gly77 replaced with a propargyl electrophilic warhead
notes: Silencing Defective 2 (SDE2), human, ubiquitin-like domain residues 1-76; Reacts covalently with the catalytic cysteine of the protease that recognises it; also called HA-SDE2UBL-ABP; SDE2UBL probe; not shown: HA, N-terminal, kept
B1: binds [1].

B2: SDE2UBL without the terminal Gly77 (domain or fragment, human, UniProt Q6IQ49-1 1-76, looked up)
chain: MAEAAALVWIRGPGFGCKAVRCASGRCTVRDFIHRHCQDQNVPVENFFVKCNGALINTSDTVQHGAVYSLEPRLCG
notes: Silencing Defective 2 (SDE2), human, ubiquitin-like domain with the terminal Gly77 removed (residues 1-76); also called SDE2UBLΔG77
B2: binds [2].

B3: binds [3]; binds [4].

B4 gave a Kd [5] of 11.7 ± 9.1 nM.

B5: SDE2 ubiquitin-like domain, SDE2UBL(1-77) (domain or fragment, human, UniProt Q6IQ49-1 1-77, looked up)
chain: MAEAAALVWIRGPGFGCKAVRCASGRCTVRDFIHRHCQDQNVPVENFFVKCNGALINTSDTVQHGAVYSLEPRLCGG
notes: Silencing Defective 2 (SDE2), human, N-terminal ubiquitin-like domain, residues 1-77, ending in the free Gly76-Gly77 motif; also called SDE2 1-77; source: E. coli BL21 (DE3), purified (Ni-NTA, SUMO protease, reverse Ni-NTA, SEC Superdex 75); not shown: His, N-terminal, cleaved; SUMO, N-terminal, cleaved
With B5 the Kd [2] was 26600 nM, the Kd [6] was 1670 nM and the “stoichiometry N” value [6] was 2. The Kd (USP5 C335R, recombinant) was 2150 nM and the “stoichiometry N” value (USP5 C335R, recombinant) was 1.
